Experimental data published in paper PMC5740117, “Functional characterization and discovery of modulators of SbMATE, the agronomically important aluminium tolerance transporter from Sorghum bicolor” (Scientific Reports, 2017).

Tests used:
SbMATE [1] = biological target: T1, SbMATE (Sorghum bicolor, UniProt A7XZS5); experiment: ethidium uptake into Pichia pastoris cells, flow cytometry of DNA-bound ethidium; format: cell-based; parameters: full-length; N-terminal FLAG and C-terminal His10 (or 3C-cleavable C-terminal His8) in Pichia pastoris KM71H; conditions: pH 8.5, 25 mM Tris-Cl, 137 mM NaCl, 2.7 mM KCl, outward proton gradient, 20 min, room temperature; read-out: half-maximal transport rate
T1 sequence (A7XZS5 1-600): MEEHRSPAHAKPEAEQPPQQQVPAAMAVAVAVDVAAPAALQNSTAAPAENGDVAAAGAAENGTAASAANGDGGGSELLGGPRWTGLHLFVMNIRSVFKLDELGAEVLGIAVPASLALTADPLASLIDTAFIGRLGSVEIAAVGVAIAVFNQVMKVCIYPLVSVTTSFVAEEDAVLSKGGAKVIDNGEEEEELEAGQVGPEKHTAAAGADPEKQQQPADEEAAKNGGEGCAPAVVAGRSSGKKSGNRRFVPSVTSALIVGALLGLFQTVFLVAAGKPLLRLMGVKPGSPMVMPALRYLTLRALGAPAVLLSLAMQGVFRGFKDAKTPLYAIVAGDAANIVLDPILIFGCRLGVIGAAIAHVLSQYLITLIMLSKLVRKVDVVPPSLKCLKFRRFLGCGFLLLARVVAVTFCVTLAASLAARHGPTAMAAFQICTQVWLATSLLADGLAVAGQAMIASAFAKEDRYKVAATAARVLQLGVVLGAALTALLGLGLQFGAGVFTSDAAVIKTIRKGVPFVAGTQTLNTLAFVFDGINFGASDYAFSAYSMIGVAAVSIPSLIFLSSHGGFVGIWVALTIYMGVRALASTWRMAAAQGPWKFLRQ

SbMATE [2] = biological target: T1, SbMATE; experiment: surface plasmon resonance, immobilized detergent-purified protein; format: binding; parameters: full-length; N-terminal FLAG and C-terminal His10 (or 3C-cleavable C-terminal His8) in Pichia pastoris KM71H, bDDM-purified for SPR; Xenopus oocytes from cRNA for citrate efflux; conditions: 50 mM HEPES pH 8.0, 150 mM NaCl, 0.03% bDDM
[3] = biological target: T2, SbMATE (Sorghum bicolor MATE transporter), detergent-purified (Sorghum bicolor, bDDM detergent-solubilised from Pichia pastoris; N-terminal FLAG and C-terminal His10 tags left out; covalently immobilised by EDC-NHS chemistry for SPR); experiment: SPR; as the other SPR (SbMATE covalently immobilised on CMD chip; 50 mM HEPES pH 8.0, 150 mM NaCl, 0.03% bDDM; Nbs injected at various concentrations) but a BSA-immobilised surface was the reference channel instead of a blank surface; n = 3; conditions: both partners purified
T2 chain: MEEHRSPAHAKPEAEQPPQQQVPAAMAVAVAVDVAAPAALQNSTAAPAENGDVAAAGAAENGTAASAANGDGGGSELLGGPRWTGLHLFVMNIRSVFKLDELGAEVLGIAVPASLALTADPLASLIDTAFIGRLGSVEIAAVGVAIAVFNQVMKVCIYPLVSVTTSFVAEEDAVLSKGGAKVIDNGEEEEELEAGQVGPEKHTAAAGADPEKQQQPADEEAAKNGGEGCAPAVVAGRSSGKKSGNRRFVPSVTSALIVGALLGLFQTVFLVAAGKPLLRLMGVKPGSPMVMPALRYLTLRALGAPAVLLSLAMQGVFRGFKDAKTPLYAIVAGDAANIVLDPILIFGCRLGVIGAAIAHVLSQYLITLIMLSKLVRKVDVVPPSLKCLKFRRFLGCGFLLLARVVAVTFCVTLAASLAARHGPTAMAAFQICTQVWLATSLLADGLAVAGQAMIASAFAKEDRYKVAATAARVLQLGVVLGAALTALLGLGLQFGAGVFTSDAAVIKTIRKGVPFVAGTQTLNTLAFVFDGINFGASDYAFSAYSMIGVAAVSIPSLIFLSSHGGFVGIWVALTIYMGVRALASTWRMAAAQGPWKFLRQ

[4] = biological target: T2, SbMATE (Sorghum bicolor MATE …); experiment: SPR; BiOptix 404Pi, CMD sensorchip; detergent-purified SbMATE covalently immobilised (EDC-NHS, 5,000 RU); purified Nbs injected at various concentrations; running buffer 50 mM HEPES pH 8.0, 150 mM NaCl, 0.03% bDDM; double-referenced against a blank surface and buffer injections; regeneration 50 mM glycine pH 2.1; conditions: both partners purified

ethidium bromide
Km (SbMATE [1]): 130 ± 17.8 µM | Kd (SbMATE [2]): 47.1 ± 15.6 µM

B1: Nb 94 (VHH)
VHH: EVQLVESGGGLVQPGGSLRLSCAASGFTFSTYSMSWVRLAPGKALEWVSVINSGGDATYYADSVKGRFTISRDNAKNMLYLQMNSLKPVDTAMYYCVTGLYMSTGPVVAVPFGYWGQGTQVTVSS
notes: Selected by mRNA/cDNA display from a naive camelid single-domain library (Creative Biolabs); also called nanobody 94; source: E. coli BL21 (DE3) Star, purified (Ni-NTA, SEC)
Kd [3]: 0.0995 µM

B2: Nb 80 (VHH)
VHH: QVQLVESGGGSVQAGGSLRLSCTYSVYTYSSDSMAWFRQAPGKEREGVAGIYIGSGSTLYADSAKGRLTISQDKAKNTVYLQMNSLKPEDTALYYCAAGGNWYDGVLNVERAFAYWGQGTQVTVSS
notes: Selected by mRNA/cDNA display from a naive camelid single-domain library (Creative Biolabs); also called nanobody 80; source: E. coli, purified (Ni-NTA, SEC)
Kd [4]: 12.2 µM

B3: Nb 83 (VHH)
VHH: EVQLVESGGGSVQAGGSLRLSCAVSGYTYCSYDMSWYRQAPGKEREFVSGIDSDGSTSYADSVKGRFTISQDNAKNTLYLQMNSLKPEDTAMYYCAVDSVWRLCSLDPADFGYWGQGTQVTVSS
notes: Selected by mRNA/cDNA display from a naive camelid single-domain library (Creative Biolabs); also called nanobody 83; source: E. coli BL21 (DE3) Star, purified (Ni-NTA, SEC)
Kd [4]: 3.3 µM

B4: Nb 81 (VHH)
VHH: HVQLVESGGGSVQAGGSLRLSCAASGYSYCSYDMSWYRQAPGKEREFVATIDSYGDTSYADSVKGRFTISQDNAKNTLYLQMNSLKPEDTAMYYCATTPYGGWRYFGYWGQGTQVTVSS
notes: Selected by mRNA/cDNA display from a naive camelid single-domain library (Creative Biolabs); also called nanobody 81; source: E. coli, purified (Ni-NTA, SEC)
Kd [4]: 23.9 µM

B5: Nb 93 (VHH)
VHH: HVQLVESGGGLVQAGGFLRLSCTASGFTFDNLALAWFRQAPGKEREGVSCISWSGTRTYYADSVQGRFAISRDNAKNTLYLQMASLKPEDTAMYYCAAESSWVKTCPGDTTDWGSTYWGQGTQVTVSS
notes: Selected by mRNA/cDNA display from a naive camelid single-domain library (Creative Biolabs); also called nanobody 93; source: E. coli, purified (Ni-NTA, SEC)
Kd [4]: 26.1 µM

B6: Nb 86 (VHH)
VHH: HVQLVESGGGSVQAGGSLRLTCAASGFTFSNYYMSWVRQAPGKGLEWVSSIYSVGSNGYYADSVKGRSTISRDNAKNTLYLQMNSLKPEDTAVYYCAAEPGGSWWDAYSYWGQGTQVTVSS
notes: Selected by mRNA/cDNA display from a naive camelid single-domain library (Creative Biolabs); also called nanobody 86; source: E. coli Shuffle T7, purified (Ni-NTA, SEC)
Kd [3]: 0.174 µM
